Laboratory results: patent US20100168016A1, “DIAGNOSIS AND TREATMENT OF DISEASES CAUSED BY MISFOLDED PROTEINS” (THE JACKSON LABORATORY, priority 2007, published 2010)

What was measured:
[1] = test system: sti/sti embryonic fibroblasts; assay: serine-induced cell death in embryonic fibroblasts; assay type: cell-based, mouse; details: ANKRD16^CAST/+; sti/sti fibroblasts vs sti/sti, increasing serine
Excerpt: FIG. 5. A graph depicting viability curves for mouse embryonic fibroblasts (MEFs) with increasing concentrations of serine in the culture media. ANKRD 16 (Stim^CAST) rescues serine-mediated cell death in sti/sti fibroblasts.
We analyzed serine-induced cell death in +/+, ANKRD16^CAST/+; sti/sti, and sti/sti embryonic fibroblasts. Mouse embryonic fibroblasts were isolated from mouse embryos carrying no mutation (WT; C57BL/6J), the CAST-derived ANKRD16 gene (ANKRD16^CAST/+) and the sticky (sti/sti) mutation, or carrying the C57BL/6 ANKRD16 gene and the sti mutation (sti/sti).

[2] = test system: sti/sti Purkinje cells; assay: Purkinje cell survival in sti/sti mice carrying the Pcp2-driven ANKRD16 transgene; assay type: in vivo, mouse
Excerpt: To determine if ANKRD16 can rescue neuron death in a cell autonomous fashion, we transgenically expressed the ANKRD16 cDNA in Purkinje cells and examined the role of this transgene in Purkinje cell survival in sti/sti mice. ANKRD16 coding sequence was amplified by polymerase chain reaction from cDNA by using Pfu DNA polymerase (Stratagene), purified by agarose gel electrophoresis and ligated into the expression vector. Transgenic (TgPcp2-ANKRD16) mice carrying the full-length ANKRD16 cDNA (ANKRD16^361 or CAST allele) were generated on the inbred C57BL/6J background by microinjection of the purified DNA into C57BL/6J zygotes.

[3] = test system: sticky mutant mice; assay: fertility (number of live offspring) of sticky mutant mice; assay type: in vivo, mouse; details: ANKRD16^CAST crossed into sti/sti; 7 matings, females 8-9 weeks
Protocol: FIGS. 7. A graph depicting litter size (y axis) in WT, STIM and STI mice (x axis). Expression of ANKRD16 protein can restore the reduced fertility in sticky mutant mice. “WT” refers to C57BL/6J wild type mice, “STIM” refers to sticky mutant mice carrying the modifier gene ANKRD16, and STI means homozygous sticky mutant mice.
Female mice of the various genotypes at the age of at 8-9 weeks were mated and the fertility was determined by counting the number of live offspring. When mating C57BL/6J mice (WT), which are wild type, the average litter size was 6.87 from 8 matings with a total of 55 offspring. […] When the modifier gene ANKRD16^CAST was crossed into the sti/sti mutations, the litter size was restored to normal with 6.51 pups from 7 matings with a total of 46 offspring. […] The CAST ANKRD16 is the full length version of ANKRD16, also called ANKRD^361.

[4] = test system: sti/sti Purkinje cells; assay: ubiquitinated protein inclusions in sti/sti Purkinje cells; assay type: in vivo, mouse; details: sti/sti mice, 4, 6 and 12 weeks of age
Excerpt: FIGS. 9A and B. Graphs illustrating that the expression of full length ANKRD16 reduces protein inclusions in sti/sti Purkinje cells. Sti/sti means homozygous sticky mice (B6.Cg-Aarssti/J). ANKRD16; sti/sti means homozygous sticky mice intercrossed with mice expressing full length ANKRD16. […] 4W means brains were isolated from 4 week old mice, 6W for 6 week old mice and 12 W for 12 week old mice.
Brains from homozygous sticky mice (sti/sti; B6.Cg-Aarssti/J; available from The Jackson Laboratory Stock Number 002560) and sticky mice intercrossed with transgenic mice expressing the full length ANKRD16, were isolated at the age of 4 weeks, 6 weeks and 12 weeks. The brains were processed for sectioning and antibody staining using standard histological methods. Sagittal sections were prepared and immunostained with antibodies against ubiquitin and calbindin. The antibodies against calbidin D-28 were used to visualize Purkinje cells. The antibodies against ubiquitin were used to visualize ubiquitinated protein aggregates. Purkinje cells with ubiquitinated aggregates were counted from three sections spaced at 100 micrometer beginning at midline and working laterally per mouse. Three mice from each genotype were analyzed. The total number of Purkinje cells with inclusions as well as the % of remaining Purkinje cells with inclusions are shown in the graphs in FIGS. 9A and 9B.

[5] = test system: ubiquitin/proteasome pathway; assay: UbG76V-GFP proteasome reporter in mouse embryonic fibroblasts (FACS); assay type: cell-based; details: ANKRD16^CAST double transgenic fibroblasts, 1.5 uM epoximicin for 6 hours
Protocol: FIG. 13. […] Mouse embryonic fibroblasts were analyzed from UbG76V-GFP transgenic and UbG76V-GFP; ANKRD16^CAST double transgenic mice; untreated and treated with 1000 nM epoximicin for 6; 12 or 18 hours (hr). The presence of the ANKRD16^CAST allele leads to reduced GFP intensity which correlates with increased proteasome activity.
Two lines of transgenic mice, UB^G76V-1 and UB^G76V-2, were generated with a ubiquitin-fusion GFP driven by the chicken β-actin promoter (Lindsten et al., 2003a; Lindsten et al., 2003b). UbG76V-GFP transgenic mice are available from The Jackson Laboratory (stock number 008111 and 008112). These mice ubiquitously express transcripts for the transgene, but as expected from the short half-life of the modified GFP protein, GFP is undetectable in all tissues analyzed. […]
UbG76V-GFP transgenic mice were intercrossed with the BAC transgenic mice carrying the CAST allele of ANKRD16, which gives rise to full length ANKRD16 mRNA and protein, yielding in double transgenic called UbG76V-GFP; ANKRD16^CAST. […] Using Western blot analysis the expression of ANKRD16 was analyzed showing an upregulation of ANKRD16 in the double transgenic mice UbG76V-GFP; ANKRD16 6^CAST. […]

[6] = test system: mouse embryonic fibroblasts; assay: epoximicin-induced cell death of mouse embryonic fibroblasts (propidium iodide, FACS); assay type: cell-based; details: epoximicin 400 nM to 2500 nM for 18 hours
Protocol: FIG. 14. […] Fibroblasts with different genotypes were compared: WT means C57BL/6J; UbG76VGFP transgenic and ANKRD16^CAST UbG76V-GFP double transgenic.
Mouse embryonic fibroblasts were treated with 1.5 uM epoximicin for 6 hours before the GFP (green fluorescent protein) levels were analyzed by fluorescence microscopy (data not shown) or fluorescence-activated cell sorting (FACS) analysis (FIG. 13). Mouse embryonic fibroblasts not expressing the ANKRD16^CAST allele show a higher GFP level. […] The proteasome inhibitor epoximicin prevents the rapid degradation of GFP in the proteasome. […] Further the embryonic fibroblasts from the C57BL/6J wild type (WT), UbG76V-GFP transgenic and UbG76V-GFP; ANKRD16^CAST double transgenic mice were treated with various concentrations of epoximicin for 18 hours. The epoximicin concentrations ranged from 400 nM to 2500 nM (see FIG. 14). Fibroblasts were stained with propidium iodide to evaluate the percentage of cell death by FACS analysis.

B1: ANKRD16^CAST: full length (361 amino acid) ANKRD16 from the CAST allele, expressed from congenic region or transgene in mice and cells (protein)
chain: MALPGDPRRLCRLVQEGRLRDLQEELAVARGCRGPAGDTLLHCAARHGRQDILAYLVEAWSMDIEATNRDYKRPLHEAASMGHRDCVRYLLGRGAVVDSLKKADWTPLMMACTRKNLDVIQDLVEHGANPLLKNKDGWNSFHIASREGHPVILRYLLTVCPDAWKTESNIRRTPLHTAAMHGCLEAVQVLLERCHYEPDCRDNCGVTPFMDAIQCGHVSIAKLLLEQHKACSSAADSMGAQALHRAAVTGQDEAIRFLVCGLGIDVDVRAKSSQLTALHYAAKEGQTNTVQTLLSLGADINSTDERNRSVLHLACAGQHVACTRLLLQSGLKDSADLTGTLAQQLMRSVDILQDFDHDVKS
With B1 the “rescue from serine-induced cell death” value [1] was “completely rescued”, the ataxia ([2]; sti/sti mice carrying the transgene, 3 months of age) was “no signs of ataxia” and the “Purkinje cell death (calbindin D-28 immunohistochemistry)” value ([2]; sti/sti mice, Pcp2 (L7) promoter) was “suppression of Purkinje cell death”. For the same molecule, the litter size [3] was 6.51 pups, the “Purkinje cells with protein aggregates” value [4] was “reduces Purkinje cells with protein aggregates” and the “green fluorescence from GFP” value [5] was “greatly reduced”. The cell death [6] was “reduced cell death”.
